Target: C3aR1 (C3a receptor) on mouse pancreatic islet cells (mouse) (UniProt O09047)
Test: cell-based or functional assay

C3aR1 (C3a receptor) on mouse pancreatic islet cells (mouse), sequence (O09047 whole entry): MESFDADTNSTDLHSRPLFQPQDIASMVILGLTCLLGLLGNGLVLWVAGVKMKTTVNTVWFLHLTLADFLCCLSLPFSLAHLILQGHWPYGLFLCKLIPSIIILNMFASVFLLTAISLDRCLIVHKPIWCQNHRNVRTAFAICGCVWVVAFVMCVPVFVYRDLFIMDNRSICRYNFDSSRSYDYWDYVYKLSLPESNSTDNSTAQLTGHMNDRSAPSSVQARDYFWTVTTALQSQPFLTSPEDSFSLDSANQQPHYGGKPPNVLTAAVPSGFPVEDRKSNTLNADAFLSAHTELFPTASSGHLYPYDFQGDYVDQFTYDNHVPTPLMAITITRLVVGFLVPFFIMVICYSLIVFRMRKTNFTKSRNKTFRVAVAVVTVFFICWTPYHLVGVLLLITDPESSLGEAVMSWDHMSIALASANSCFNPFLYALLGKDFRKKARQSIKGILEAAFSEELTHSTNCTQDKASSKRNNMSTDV

glucose-stimulated insulin secretion assay on isolated murine islets (enhancement of insulin secretion at high glucose): 30 to 40%
Substance: Recombinant C3a protein (ligand)
